From publication PMC12494543, “Identification of ALKBH6 as a nucleotide demethylase with a distinct substrate preference” (The Journal of Biological Chemistry, 2025)

Tests used:
[1] = substrate: C[n+]1cn([C@@H]2O[C@H](COP(=O)(O)O)[C@@H](O)[C@H]2O)c2nc(N)[nH]c(=O)c21; experiment: FDH-coupled formaldehyde release demethylation assay; format: biochemical, human; conditions: other: substrate of ALKBH6, Michaelis-Menten; 37.0 °C
Protocol: (§1) NMPs including 1meAMP (Jena Bioscience, NU-1029-1,) 7meGMP (Jena Bioscience, NU-1135S), 6me-AMP (Sigma, M2780) were purchased. N-methylated deoxy-NMPs were prepared by methylating chemically synthesized 30-mer oligonucleotide containing either dA, dG, dC, or dT by MMS (5%, v/v) (0.59 M) MMS (Sigma, 129925) and purified as described before ([17]). The oligonucleotides were digested with nuclease P1 (NEB) at 37 °C for 4 h to produce deoxy-NMPs. After heat inactivating the nuclease, dNMPs were purified by HPLC and used for the demethylation reaction. N-methylated NMPs were purified similarly, using RNA as the starting material. For the demethylation reaction, ALKBH6 (1 μM) and me-dNMPs (1 mM) were mixed in the dioxygenase reaction buffer and incubated at 37 °C for 30 min. Formaldehyde release was detected by FDH-coupled DNA repair assay as described before ([32], [33]). Briefly, 1 mM NAD+ and 0.01 U FDH were added to the dioxygenase reaction buffer containing methylated nucleotide and ALKBH6. NADH generated was detected by the characteristic absorption peak (340 nm) using a 96-well multimode reader (Synergy, Biotek Instrument). Formaldehyde production was quantified from the standard curve and the initial velocities were determined using various substrate concentrations. The results were plotted and analyzed using GraphPad Prism.

[2] = substrate: C[n+]1cnc2c(ncn2[C@@H]2O[C@H](COP(=O)(O)O)[C@@H](O)[C@H]2O)c1N; experiment: as above; format: biochemical, human; conditions: other: substrate of ALKBH6, Michaelis-Menten; 37.0 °C
Protocol: as §1

B1: ALKBH6 (Homo sapiens) (protein)
chain: MEEQDARVPALEPFRVEQAPPVIYYVPDFISKEEEEYLLRQVFNAPKPKWTQLSGRKLQNWGGLPHPRGMVPERLPPWLQRYVDKVSNLSLFGGLPANHVLVNQYLPGEGIMPHEDGPLYYPTVSTISLGSHTVLDFYEPRRPEDDDPTEQPRPPPRPTTSLLLEPRSLLVLRGPAYTRLLHGIAAARVDALDAASSPPNAAACPSARPGACLVRGTRVSLTIRRVPRVLRAGLLLGK
notes: His-tag; made in house
- Km [1]: 1.03 µM
- kcat [1]: 0.167 s⁻¹
- Km [2]: 0.96 µM
- kcat [2]: 0.18 s⁻¹
